Laboratory results from US20140127211A1.

Assays:
[1] = biological target: Notch 1-3 NRR domain swap chimera: C of Notch1; A, B, hd1, hd2 of Notch3 (row 6, unnamed on the sheet) (human); experiment: ELISA: NRR-Fc protein coated at 1 ug/ml, antibody applied at 5 ug/ml, goat anti-human Fc-HRP, TMB, O.D. 450 nM
[2] = biological target: Notch 1-3 NRR domain swap chimera: B of Notch1; A, C, hd1, hd2 of Notch3 (row 5, unnamed on the sheet) (human); experiment: as above

B1: rat-human chimeric antibody 75 (ch75) (antibody, V domains shown)
VH: QVKLLQSGAALVKPGASVKMSCKASGYAFTDYWVTWVKQSHGKSLEWIGEISPNSGGTNFNEKFKGKATLTVDKSTSTAYMELSRLTSEDSAIYYCTRGEIRYNWFAYWGQGTLVTVSS
VL: NIVMTQSPKSMSISVGDRVTMNCKASQNVGNNIAWYQQKPGQSPKLLIYYASNRYTGVPDRFTGGGYGTDFTLTINSMQAEDAAFYYCQRLYNSPFTFGSGTKLEIK
Q: Which O.D. 450 nM (ELISA, relative binding capacity) [1] does the source give for B1 here?
A: The O.D. 450 nM (ELISA, relative binding capacity) was 0.8.

Q: And the O.D. 450 nM (ELISA, relative binding capacity) [2]?
A: Its O.D. 450 nM (ELISA, relative binding capacity) is 2.37.
